Test results reported in patent US20260234232A1 (QUAERITE BIOPHARM RESEARCH BEIJING, published 2026).
Numbering of substitutions follows the chain as printed. Read-outs that look alike come from different tables or passages of the source. Blank lines part the entries; values can stand above or below the binder they belong to.

Columns and labels:
human VEGFA165 [1] = molecular target: T1, human VEGFA165 (human, UniProt P15692-4 27-191); assay: ELISA, coated human VEGFA165, anti-His detection
T1 construct: Bought protein from two suppliers, treated as one molecule; the supplier is named under assay; also called antigen VEGFA
Method: (§1) Antigen human VEGFA165 (label-free, purchased from Sino Biological, Cat. No.: HPLC-10008-HNAH, hereinafter referred to as VEGFA) was diluted with ELISA coating buffer to a final concentration of 0.3 μg/mL and added to a microplate at 100 μL/well for coating at 4° C. overnight. […] The solution used for antibody dilution was PBS containing 0.1% Tween-20 (pH 7.4), i.e., PBST. After being incubated at 37° C. for 1 h, the microplate was washed 3 times with PBST, and a dilution of His-Tag murine monoclonal antibody (purchased from Proteintech, Cat. No.: 66005-1-Ig) was added. The plate was further incubated at 37° C. for 1 h and washed again. Subsequently, a dilution of HRP-labeled goat anti-mouse IgG antibody (HRP-conjugated Affinipure Goat Anti-Mouse IgG (H+L), purchased from Proteintech, Cat. No.: SA00001-1) was added, and the plate was incubated at room temperature for 45 min. After the plate was washed, 100 μL of TMB (purchased from Tiangen Biotech, Cat. No.: PA107-01) was added to each well for color development at 37° C. for 15 min, followed by the addition of 50 μL of stopping solution. The absorbance at 450 nm (OD450) was measured using a microplate reader.

human VEGFA165 [2] = molecular target: T1, human VEGFA165; assay: ELISA, coated human VEGFA165, anti-His detection; remark: listed apart in the source
Method: as §1
The experimental procedure was the same as that described in “2.

human VEGFA165 [3] = molecular target: T1, human VEGFA165; assay: competitive ELISA, coated VEGFA, competitor VEGFR2-ECD-Fc 1 nM
human VEGFA165 [4] = molecular target: T1, human VEGFA165; assay: ELISA, coated human VEGFA165, anti-His detection; remark: listed apart in the source
Method: as §1
The purified bivalent humanized nanobodies were evaluated for their VEGFA binding activity, and the experimental procedure was the same as that described in “2.

human VEGFA165 [5] = molecular target: T1, human VEGFA165; assay: SPR Biacore 8K, VEGFA165 on CM5, nanobody analyte, 1:1 fit
Method: Using the Biacore 8K instrument (Cytiva), the antigen VEGFA165 (label-free, purchased from Sino Biological, Cat. No.: HPLC-10008-HNAH) as the ligand was coupled onto a CM5 chip through amino-coupling reagents (EDC and NHS), with the coupling level being about 400 RU. The mobile phase buffer was HBS-EP (0.01 M HEPES pH 7.4, 0.15 M NaCl, 3 mM EDTA, 0.005% v/v Tween 20) during the experiment. […] In the kinetic analysis, the binding time between the antigen and the antibody was 240 s, the dissociation time was 1500 s, and the flow rate was 30 μL/min. In a multi-cycle mode, the chip was regenerated with 100 mM hydrochloric acid.

human VEGFA165 [6] = molecular target: T1, human VEGFA165; assay: ELISA, coated human VEGFA165, anti-His detection; remark: listed apart in the source
Method: as §1

human VEGFA165 [7] = molecular target: T1, human VEGFA165; assay: competitive ELISA, coated VEGFA, competitor VEGFR2-ECD-Fc 1 nM; remark: listed apart in the source

T1 sequence (P15692 other isoform, or with tags, fused parts or gaps limits assumed): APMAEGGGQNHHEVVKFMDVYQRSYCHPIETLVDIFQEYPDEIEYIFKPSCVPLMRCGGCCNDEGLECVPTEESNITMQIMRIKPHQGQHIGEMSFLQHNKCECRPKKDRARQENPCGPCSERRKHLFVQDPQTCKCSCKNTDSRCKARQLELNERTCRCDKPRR

B1: 2V31-9GS (VHH)
chain: QLQLVESGGGSVQPGGSLRLSCEVSGRTFASYTMGWFRQAPGKEREFVVAISKGGYKYDAVSLEARFTISKDNTKNTVYLQMNSLKPEDTAVYYCAGTRAYGSSRLRLAKTYEYWGQGTQVTVSSGGGGSGGGSQLQLVESGGGSVQPGGSLRLSCEVSGRTFASYTMGWFRQAPGKEREFVVAISKGGYKYDAVSLEARFTISKDNTKNTVYLQMNSLKPEDTAVYYCAGTRAYGSSRLRLAKTYEYWGQGTQVTVSS
notes: Tandem bivalent nanobody
EC50 (human VEGFA165 [1]): 0.31 nM
EC50 (human VEGFA165 [2]): 0.31 nM

B4: V1-V40 (bispecific antibody)
chain: B1 chain with A30S, A60S, G97A, K110D, A164T, D193N, G231A
EC50 (human VEGFA165 [1]): 0.42 nM
IC50 (human VEGFA165 [3]): 3.74 nM
Maximum inhibition rate (%) (human VEGFA165 [3]): 88.5%

B5: V30-V40 (bispecific antibody)
chain: B1 chain with A30S, E44G, G97A, A164T, D193N, G231A
EC50 (human VEGFA165 [1]): 0.31 nM
IC50 (human VEGFA165 [3]): 3.32 nM
Maximum inhibition rate (%) (human VEGFA165 [3]): 89.8%

B7: V1-V15 (bispecific antibody)
chain: B1 chain with A30S, A60S, G97A, K110D, A194S, K244E
EC50 (human VEGFA165 [1]): 0.29 nM
IC50 (human VEGFA165 [3]): 3.8 nM
Maximum inhibition rate (%) (human VEGFA165 [3]): 87.8%

B8: V15-V30 (bispecific antibody)
chain: B1 chain with A60S, K110E, A164S, E178G, G231A
EC50 (human VEGFA165 [1]): 0.41 nM
IC50 (human VEGFA165 [3]): 3.22 nM
Maximum inhibition rate (%) (human VEGFA165 [3]): 91.2%

B9: 2V30-2H-2m-NL (VHH)
chain: EVQLVESGGGLVQPGGSLRLSCAASGRTFSSYTMGWFRQAPGKEREFVVAISKGGYKYDAVSLEARFTISRDNSKNTVYLQMNSLRPEDTAVYYCAATRAYGSSRLRLAKTYEYWGQGTLVTVSSEVQLVESGGGLVQPGGSLRLSCAASGRTFSSYTMGWFRQAPGKEREFVVAISKGGYKYDAVSLEARFTISRDNSKNTVYLQMNSLRPEDTAVYYCAATRAYGSSRLRLAKTYEYWGQGTLVTVSS
notes: Tandem bivalent humanized nanobody
EC50 (human VEGFA165 [4]): 0.81 nM

B11: 2V40-3H-2m-NL (VHH)
chain: B9 chain with D59N, D184N
notes: as for B9
EC50 (human VEGFA165 [4]): 0.26 nM

B15: 2V1-DP-3GS (VHH)
chain: EVQLVESGGGLVQPGGSLRLSCAVSGRTFSSYTMGWFRQAPGKEREFVVAISKGGYKYDSVSLEARFTISRDNSKNTVYLQMNSLRPEDTAVYYCAATRAYGSSRLRLADTYEYWGQGTLVTVSSGGSEVQLVESGGGLVQPGGSLRLSCAVSGRTFSSYTMGWFRQAPGKEREFVVAISKGGYKYDSVSLEARFTISRDNSKNTVYLQMNSLRPEDTAVYYCAATRAYGSSRLRLADTYEYWGQGTLVTVSS
notes: as for B9
EC50 (human VEGFA165 [4]): 0.27 nM

B16: 2V1-SA1-3GS (VHH)
chain: B15 chain with S74A, S202A
notes: as for B9
EC50 (human VEGFA165 [4]): 0.26 nM

B17: 2V15-4m-3GS (VHH)
chain: B15 chain with V24A, S30A, S74A, A97G, D110E, V152A, S158A, S202A, A225G, D238E
notes: as for B9
EC50 (human VEGFA165 [4]): 0.24 nM

B18: 2V43-1H-2m-3GS (VHH)
chain: B15 chain with V24A, D110N, V152A, D238N
notes: as for B9
EC50 (human VEGFA165 [4]): 1.19 nM

B19: 2V30-2H-2m-3GS (VHH)
chain: B15 chain with V24A, S60A, D110K, V152A, S188A, D238K
notes: as for B9
EC50 (human VEGFA165 [4]): 0.94 nM

B21: V29 (VHH)
VHH: QLQLVESGGGSVQPGGSLRLSCEVSGRTFSSYTMGWFRQAPGKEREFVVAISKGGYKYDSVSLEARFTISKDNTKNTVYLQMNSLKPEDTAVYYCAGTRAYGSSRLRLANTYEYWGQGTQVTVSS
notes: Monovalent nanobody; tag not described here
Kd (human VEGFA165 [5]): 0.653 nM
koff (human VEGFA165 [5]): 0.000154 s⁻¹
kon (human VEGFA165 [5]): 236000 M⁻¹ s⁻¹

B22: V1 (VHH)
VHH: B21 VHH with G97A, N110D
notes: Monovalent nanobody; tag not described here, the ELISA detects a His tag
EC50 (human VEGFA165 [2]): 0.52 nM

B23: V43 (VHH)
VHH: B21 VHH with S30T
notes: as for B22
Kd (human VEGFA165 [5]): 0.116 nM
koff (human VEGFA165 [5]): 8.63e-05 s⁻¹
kon (human VEGFA165 [5]): 743000 M⁻¹ s⁻¹
EC50 (human VEGFA165 [2]): 0.31 nM

B24: V33 (VHH)
VHH: B21 VHH with G97A, N110K
notes: as for B21
Kd (human VEGFA165 [5]): 0.719 nM
koff (human VEGFA165 [5]): 0.000233 s⁻¹
kon (human VEGFA165 [5]): 324000 M⁻¹ s⁻¹

B25: V31 (VHH)
VHH: B21 VHH with S30A, S60A, N110K
notes: as for B22
EC50 (human VEGFA165 [2]): 0.77 nM

Continued, values first:

EC50 (human VEGFA165 [1]): 0.31 nM
IC50 (human VEGFA165 [3]): 2.84 nM
Maximum inhibition rate (%) (human VEGFA165 [3]): 91.1%
B2: V1-V30 (bispecific antibody)
chain: B1 chain with A30S, A60S, G97A, K110D, A164S, E178G, G231A

EC50 (human VEGFA165 [1]): 0.26 nM
IC50 (human VEGFA165 [3]): 4.06 nM
Maximum inhibition rate (%) (human VEGFA165 [3]): 90.1%
B3: V15-V40 (bispecific antibody)
chain: B1 chain with A60S, K110E, A164T, D193N, G231A

EC50 (human VEGFA165 [1]): 0.17 nM
EC50 (human VEGFA165 [2]): 0.17 nM
B6: 2V43-9GS (VHH)
chain: B1 chain with A30T, A60S, K110N, A164T, A194S, K244N
notes: Tandem bivalent nanobody

EC50 (human VEGFA165 [4]): 0.22 nM
B10: 2V13-4m-NL (VHH)
chain: B9 chain with S30T, S74A, A97G, K110D, S155T, S199A, A222G, K235D
notes: as for B9

EC50 (human VEGFA165 [4]): 0.28 nM
B12: 2V1-SA1-NL (VHH)
chain: B9 chain with A24V, A60S, S74A, K110D, A149V, A185S, S199A, K235D
notes: as for B9

EC50 (human VEGFA165 [4]): 0.2 nM
B13: 2V1-DP-NL (VHH)
chain: B9 chain with A24V, A60S, K110D, A149V, A185S, K235D
notes: as for B9

EC50 (human VEGFA165 [4]): 0.19 nM
B14: 2V15-4m-NL (VHH)
chain: B9 chain with S30A, A60S, S74A, A97G, K110E, S155A, A185S, S199A, A222G, K235E
notes: as for B9

EC50 (human VEGFA165 [4]): 0.23 nM
B20: 2V1-DP-9GS (VHH)
chain: EVQLVESGGGLVQPGGSLRLSCAVSGRTFSSYTMGWFRQAPGKEREFVVAISKGGYKYDSVSLEARFTISRDNSKNTVYLQMNSLRPEDTAVYYCAATRAYGSSRLRLADTYEYWGQGTLVTVSSGGGGSGGGSEVQLVESGGGLVQPGGSLRLSCAVSGRTFSSYTMGWFRQAPGKEREFVVAISKGGYKYDSVSLEARFTISRDNSKNTVYLQMNSLRPEDTAVYYCAATRAYGSSRLRLADTYEYWGQGTLVTVSS
notes: as for B9

EC50 (human VEGFA165 [6]): 0.38 nM
IC50 (human VEGFA165 [7]): 1.74 nM
Maximum inhibition rate (%) (human VEGFA165 [7]): 94.5%
B26: 2V15-39GS (VHH)
chain: QLQLVESGGGSVQPGGSLRLSCEVSGRTFASYTMGWFRQAPGKEREFVVAISKGGYKYDSVSLEARFTISKDNTKNTVYLQMNSLKPEDTAVYYCAGTRAYGSSRLRLAETYEYWGQGTQVTVSSGGGGSGGGSGGGGSGGGGSGGGGSGGGGSGGGGSGGGGSQLQLVESGGGSVQPGGSLRLSCEVSGRTFASYTMGWFRQAPGKEREFVVAISKGGYKYDSVSLEARFTISKDNTKNTVYLQMNSLKPEDTAVYYCAGTRAYGSSRLRLAETYEYWGQGTQVTVSS
notes: Tandem bivalent nanobody
